Measurements published in patent US20260184794A1 (MOMENTA PHARMACEUTICALS, published 2026).

Assays:
[1] = molecular target: T1, human α11 expressed on CHO-K1 cells (human, UniProt Q9UKX5 23-1188); assay: cell-based or functional assay
T1 sequence (Q9UKX5 whole entry, looked up): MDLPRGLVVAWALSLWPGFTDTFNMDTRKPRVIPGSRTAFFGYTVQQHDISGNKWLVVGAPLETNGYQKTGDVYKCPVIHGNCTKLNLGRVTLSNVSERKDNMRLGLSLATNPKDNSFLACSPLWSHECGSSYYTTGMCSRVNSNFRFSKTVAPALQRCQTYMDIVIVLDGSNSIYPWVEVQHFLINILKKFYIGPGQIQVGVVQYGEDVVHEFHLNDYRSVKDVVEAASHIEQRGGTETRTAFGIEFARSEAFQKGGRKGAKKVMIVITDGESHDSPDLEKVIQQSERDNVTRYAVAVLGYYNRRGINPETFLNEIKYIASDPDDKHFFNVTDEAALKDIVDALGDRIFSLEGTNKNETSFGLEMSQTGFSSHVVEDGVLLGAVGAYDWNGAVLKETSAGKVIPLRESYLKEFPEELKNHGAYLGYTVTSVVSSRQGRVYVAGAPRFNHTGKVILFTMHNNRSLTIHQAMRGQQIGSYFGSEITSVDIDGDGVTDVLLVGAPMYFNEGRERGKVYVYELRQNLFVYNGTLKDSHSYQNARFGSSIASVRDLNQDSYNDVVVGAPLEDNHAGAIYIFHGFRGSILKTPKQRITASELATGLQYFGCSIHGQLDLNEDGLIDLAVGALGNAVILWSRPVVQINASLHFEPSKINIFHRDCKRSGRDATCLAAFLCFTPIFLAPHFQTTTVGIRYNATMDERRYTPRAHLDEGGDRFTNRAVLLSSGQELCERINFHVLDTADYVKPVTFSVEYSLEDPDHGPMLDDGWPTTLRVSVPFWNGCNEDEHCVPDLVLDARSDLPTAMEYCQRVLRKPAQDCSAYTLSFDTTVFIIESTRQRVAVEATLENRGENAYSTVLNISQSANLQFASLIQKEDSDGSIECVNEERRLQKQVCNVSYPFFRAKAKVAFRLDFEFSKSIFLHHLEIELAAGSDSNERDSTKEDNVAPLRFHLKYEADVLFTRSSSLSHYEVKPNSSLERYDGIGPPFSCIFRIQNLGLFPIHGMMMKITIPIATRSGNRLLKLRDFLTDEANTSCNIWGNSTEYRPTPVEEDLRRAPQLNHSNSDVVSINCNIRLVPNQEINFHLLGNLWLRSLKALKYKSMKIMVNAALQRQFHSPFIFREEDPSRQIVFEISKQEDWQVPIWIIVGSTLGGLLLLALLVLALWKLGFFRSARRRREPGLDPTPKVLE

[2] = molecular target: T2, α11β1 on human pulmonary myofibroblasts (human, UniProt Q9UKX5 23-1188; P05556 21-798); assay: flow cytometry on human pulmonary myofibroblasts (title: Myofibroblast Binding); MFI against Log [µg/ml]
T2 construct: whole, on cells; The cells are not transfected; also called HPF/MF
Method: (§1) Human Pulmonary Fibroblasts (ScienCell) were cultured in complete Fibroblast Growth Medium (ScienCell) until 80% confluent in T-150 flasks. Cells were washed and harvested using Accutase. Cells were seeded into T-150 flasks at 7,500 cells/cm² in complete FGF and cultured for 72 hours. Cells were then washed and starved in serum reduced medium for 24 hours. After starvation, cells were treated with TGFβ1 (R&D Systems) for 72 hours. Cells were harvested using Accutase and seeded in 96-well conical bottom plates. Cells were blocked with Heat Inactived Fetal Bovine Serum (Gibco) for 30 minutes at 4° C. Cells were then incubated with anti-al I antibodies at the doses described in each figure for 30 minutes at 4° C. A human anti-al I antibody (Creative BioLabs) was included as a positive control as well as the appropriate IgG isotype negative controls. Cells were washed twice and incubated with PE conjugated secondary antibodies specific to the IgG class of the anti-α11 antibodies being tested for 30 minutes at 4° C. Cells were washed twice and fixed in 1% PF A for 30 minutes. Cells were acquired on a FACS Verse […]. Data were analyzed by gating on single cells and determining the geometric Mean Fluorescence Intensity (gMFI) in the PE channel for each sample.
Target sequence in this assay (P05556 21-798, chain 2 of 2, one chain of several): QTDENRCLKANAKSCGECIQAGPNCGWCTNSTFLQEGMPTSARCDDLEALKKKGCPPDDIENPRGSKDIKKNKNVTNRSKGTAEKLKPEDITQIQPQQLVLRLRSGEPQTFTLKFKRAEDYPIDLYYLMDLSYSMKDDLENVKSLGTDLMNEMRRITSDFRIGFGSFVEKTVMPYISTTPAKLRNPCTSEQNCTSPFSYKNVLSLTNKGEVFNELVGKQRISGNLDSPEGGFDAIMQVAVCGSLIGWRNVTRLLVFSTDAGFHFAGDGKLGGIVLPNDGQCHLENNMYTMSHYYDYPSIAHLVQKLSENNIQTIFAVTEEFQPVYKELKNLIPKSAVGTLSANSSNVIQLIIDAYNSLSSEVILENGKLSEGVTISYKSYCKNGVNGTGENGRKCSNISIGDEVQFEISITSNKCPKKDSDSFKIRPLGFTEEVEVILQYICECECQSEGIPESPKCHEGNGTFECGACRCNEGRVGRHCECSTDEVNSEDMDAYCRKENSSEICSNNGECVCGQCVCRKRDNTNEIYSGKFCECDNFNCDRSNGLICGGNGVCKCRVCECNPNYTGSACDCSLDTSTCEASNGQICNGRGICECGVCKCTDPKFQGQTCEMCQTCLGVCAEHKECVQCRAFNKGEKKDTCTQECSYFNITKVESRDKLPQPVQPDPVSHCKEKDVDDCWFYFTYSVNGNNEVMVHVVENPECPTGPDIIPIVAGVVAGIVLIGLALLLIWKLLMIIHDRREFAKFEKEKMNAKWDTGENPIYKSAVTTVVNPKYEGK

[3] = molecular target: T1, human α11 expressed on CHO-K1 cells; assay: cell-based or functional assay; remark: listed apart in the source
[4] = molecular target: T1, human α11 expressed on CHO-K1 cells; assay: flow cytometry on CHO cells expressing human α11 (CHO-α11β1 binding)
Method: (§2) 200,000 cells (wild-type CHO-K1 cells or CHO-K1 cells expressing human α11) were incubated with each antibody at desired concentrations in FACS buffer for 30 min at 4° C. Then, the cells were washed with FACS buffer and incubated with secondary antibody at 1:100 dilution for 30 minutes at 4° C. Cells were then washed and fixed with 1% PF A in PBS for 20 minutes at room temperature; washed again and read on a cytometer in FACS buffer.

[5] = molecular target: T2, α11β1 on human pulmonary myofibroblasts; assay: flow cytometry on TGFβ1-treated human pulmonary fibroblasts (myofibroblasts)
Method: as §1
Target sequence in this assay (P05556 21-798, one chain of several): as the sequence (P05556 21-798, chain 2 of 2, one chain of several) above

[6] = molecular target: T1, human α11 expressed on CHO-K1 cells; assay: flow cytometry on CHO-K1 cells expressing human α11 (title: CHO-hu α11 Binding); MFI against Log [µg/ml]
Method: as §2

[7] = molecular target: T3, recombinant human α11β1 (human, UniProt Q9UKX5 23-1141; P05556 21-728, limits assumed); assay: SPR (Biacore T200), HIS-tagged human α11β1 captured by anti-HIS, antibody injected, single cycle kinetics, 1:1 model
T3 construct: HIS-tagged heterodimer captured by anti-HIS antibody in SPR; also called HIS-tagged human α11β1; soluble human α11β1
T3 sequence (P05556 21-728 limits assumed, chain 2 of 2, one chain of several): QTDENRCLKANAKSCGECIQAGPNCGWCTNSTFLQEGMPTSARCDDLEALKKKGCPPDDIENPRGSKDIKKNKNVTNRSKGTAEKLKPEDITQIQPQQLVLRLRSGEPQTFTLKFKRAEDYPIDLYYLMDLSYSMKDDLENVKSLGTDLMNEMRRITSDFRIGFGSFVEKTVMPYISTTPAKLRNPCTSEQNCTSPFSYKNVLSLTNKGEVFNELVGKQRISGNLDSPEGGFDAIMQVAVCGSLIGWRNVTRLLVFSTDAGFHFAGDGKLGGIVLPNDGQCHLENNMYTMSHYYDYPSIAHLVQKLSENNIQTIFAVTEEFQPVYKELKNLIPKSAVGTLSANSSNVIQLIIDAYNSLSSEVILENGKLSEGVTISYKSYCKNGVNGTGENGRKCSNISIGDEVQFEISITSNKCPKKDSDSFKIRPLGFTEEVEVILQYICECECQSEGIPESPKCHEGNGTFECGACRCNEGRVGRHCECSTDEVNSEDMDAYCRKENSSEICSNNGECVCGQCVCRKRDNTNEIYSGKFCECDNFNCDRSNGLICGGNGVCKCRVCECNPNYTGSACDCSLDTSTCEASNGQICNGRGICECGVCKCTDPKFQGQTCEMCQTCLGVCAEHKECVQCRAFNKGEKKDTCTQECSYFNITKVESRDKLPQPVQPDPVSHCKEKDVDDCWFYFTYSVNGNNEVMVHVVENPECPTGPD
Method: The affinity of antibodies for human α11β1 was measured by surface plasm on resonance assay (SPR). Affinity was measured at pH 7.6 and 25° C. with a Biacore T200 instrument. Anti-HIS antibody was immobilized on the SPR sensor surface using EDC/NHS covalent attachment. HIS-tagged human α11β1 was captured on the sensor surface and a single cycle kinetics assay was used. Increasing concentrations of test antibody were injected in series over the sensor-bound α11β1. Dissociation was monitored for 1000 seconds. A sensor surface with only anti-HIS antibody and a series of blank injections were used to double-reference subtract the data. A 1:1 Langmuir model was fit to the data to estimate the kinetic association and dissociation constants. The affinity (equilibrium dissociation constant) of the interaction was calculated by dividing the kinetic dissociation constant by the kinetic association constant. Between injection cycles α11β1 and bound antibody were removed with an injection of 10 mM glycine at pH 1.5.

Binder | IC50 (read off the curve), inhibition of cell adhesion to type I collagen [1] | EC50 (read off the curve) [2] | CHO-hu α11 adhesion inhibition (IC50) [3] | EC50 [4] | EC50 [5] | EC50 (read off the curve) [6] | Kd [7]
1994-01-C7 variant 54 (antibody, V domains shown) VH: QVQLVQSGAEVKKPGASVKVSCKASGYTFTSYGISWVRQAPGQGLEWMGWISAYNANTNYAQKLQGRVTMTTDTSTSTAYMELRSLRSDDTAAYYCARVTGITGTTIGPWGQGTMVTVSS VL: DIQMTQSPSSLSASVGDRVTITCRASQSISSYLNWYQQKPGKAPKLLIYDASSLESGVPSRFSGSGSGTEFTLTISSLQPDDFAVYYCQQYNNWPQTFGQGTKVEIK | ~0.6 µg/mL | ~0.4 µg/mL |  |  |  |  | 
1994-01-C7 (antibody, V domains shown, Fully human, from phage display (scFv converted to IgG); also called 1994-01-C7 (#9); 1994-01-C07) VH: QVQLVQSGAEVKKPGASVKVSCKASGYTFTSYGISWVRQAPGQGLEWMGWISAYNGNTNYAQKLQGRVTMTTDTSTSTAYMELRSLRSDDTAAYYCARVTGITGTTIDPWGQGTMVTVSS VL: DIQMTQSPSSLSASVGDRVTITCRASQSISSYLNWYQQKPGKAPKLLIYDASSLESGVPSRFSGSGSGTEFTLTISSLQPDDFAVYYCQQYNNWPQTFGQGTKVEIK | ~0.5 µg/mL | ~0.5 µg/mL | 3.3 nM | 3.5 nM | 3.5 nM | ~0.4 µg/mL | 0.24 nM
1994-01-C7 variant 58 (antibody, V domains shown) VH: QVQLVQSGAEVKKPGASVKVSCKASGYTFTSYGISWVRQAPGQGLEWMGWISAYNANVNYAQKLQGRVTMTTDTSTSTAYMELRSLRSDDTAAYYCARVTGITGTTIGPWGQGTMVTVSS VL: DIQMTQSPSSLSASVGDRVTITCRASQSISSYLNWYQQKPGKAPKLLIYDASSLESGVPSRFSGSGSGTEFTLTISSLQPDDFAVYYCQQYNNWPQTFGQGTKVEIK | ~0.5 µg/mL | ~0.4 µg/mL |  |  |  |  | 
1994-01-C7 variant 60 (antibody, V domains shown) VH: QVQLVQSGAEVKKPGASVKVSCKASGYTFTSYGISWVRQAPGQGLEWMGWISAYNSNTNYAQKLQGRVTMTTDTSTSTAYMELRSLRSDDTAAYYCARVTGITGTTIGPWGQGTMVTVSS VL: DIQMTQSPSSLSASVGDRVTITCRASQSISSYLNWYQQKPGKAPKLLIYDASSLESGVPSRFSGSGSGTEFTLTISSLQPDDFAVYYCQQYNNWPQTFGQGTKVEIK | ~0.6 µg/mL | ~0.6 µg/mL |  |  |  | ~0.8 µg/mL | 
16E10 (antibody, V domains shown) VH: QSLEESGGDLVKPGASLTLTCRVSGFSFSSSYYMCWVRQAPGKGLEWIACIGTTRGSTYYATWAKGRFTISKISSTTVTLQMTSLTDADTATYFCARDATGYRINTIGLYFNLWGPGTLVTVSS VL: ELTQTPSSVEAAVGGTPTIKCQASQTIYSYLSWYQQKPGQPPKLLIYEASKLASGVPSRFSGSGSGTDYTLTISDLECADAATYYCQSYHGTASTEYNTFGGGTEVVVK |  |  | 0.39 nM | 0.3 nM | 0.35 nM |  | 0.048 nM
79E3E3 (antibody, V domains shown, Rat hybridoma antibody; also called Wild Type) VH: QIQLVQSGPEVKKPGESVKISCKASGYTFTDYAMNWVKQAPGNGLKWMGWINTQTGKPTYADDFKQRFVFSLETSARTTYLQINNLNIEDTATYFCTRLGTGNTKGFAYWGQGTLVTVSS VL: DILINQSPASLTVSAGERVTMSCKSSQSLLYSENNQDYLAWYQQKPGQFPKLLIYGASNRHTGVPDRFTGSGSGTDFTLTISSVQAEDLADYYCEQTYRYPFTFGSGTKLEIK |  |  | 9.4 nM | 3.4 nM | 3.35 nM |  | 1.3 nM
